Reference: PMC12609080, “Substrate recognition by human separase” (Science Advances, 2025)

Legend:
Test in all cases: fluorescence polarisation; FlAsH-EDT2-labelled SCC1 fragment as probe, inactive separase added; 25 mM Hepes (pH 8.0), 100 mM NaCl, bovine serum albumin (0.1 mg/ml), 0.01% NP-40; room temperature (25°C); One Site-Total nonlinear fit
[1] = target: MBP-SCC1^100–320 with C-terminal tetracysteine motif, unphosphorylated (human) (UniProt O60216)
[2] = target: phosphorylated SCC1 site 1 (100 to 320) (human) (UniProt O60216)
Sequence of phosphorylated SCC1 site 1 (100 to 320) (human) (O60216 100-320): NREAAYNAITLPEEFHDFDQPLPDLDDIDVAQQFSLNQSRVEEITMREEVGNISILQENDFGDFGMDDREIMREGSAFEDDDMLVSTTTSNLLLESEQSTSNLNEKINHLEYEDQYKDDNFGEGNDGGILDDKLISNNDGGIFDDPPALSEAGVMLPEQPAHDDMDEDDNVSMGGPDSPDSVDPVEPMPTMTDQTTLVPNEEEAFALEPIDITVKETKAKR

[3] = target: T1, inactive apo-separase (separase^C2029S) (human, UniProt Q14674 1-2120, C2029S); conditions: both partners purified
T1 construct: human separase (2120 amino acids), amino acids 1 to 2120, catalytic cysteine replaced with serine; Gene-optimised synthetic cDNA in the pF1 vector; also called apo-separase^C2029S; source: Sf9 (baculovirus), purified (Strep-Tactin, heparin, Superose 6)
T1 sequence (Q14674 whole entry C2029S, the tested form may be a part): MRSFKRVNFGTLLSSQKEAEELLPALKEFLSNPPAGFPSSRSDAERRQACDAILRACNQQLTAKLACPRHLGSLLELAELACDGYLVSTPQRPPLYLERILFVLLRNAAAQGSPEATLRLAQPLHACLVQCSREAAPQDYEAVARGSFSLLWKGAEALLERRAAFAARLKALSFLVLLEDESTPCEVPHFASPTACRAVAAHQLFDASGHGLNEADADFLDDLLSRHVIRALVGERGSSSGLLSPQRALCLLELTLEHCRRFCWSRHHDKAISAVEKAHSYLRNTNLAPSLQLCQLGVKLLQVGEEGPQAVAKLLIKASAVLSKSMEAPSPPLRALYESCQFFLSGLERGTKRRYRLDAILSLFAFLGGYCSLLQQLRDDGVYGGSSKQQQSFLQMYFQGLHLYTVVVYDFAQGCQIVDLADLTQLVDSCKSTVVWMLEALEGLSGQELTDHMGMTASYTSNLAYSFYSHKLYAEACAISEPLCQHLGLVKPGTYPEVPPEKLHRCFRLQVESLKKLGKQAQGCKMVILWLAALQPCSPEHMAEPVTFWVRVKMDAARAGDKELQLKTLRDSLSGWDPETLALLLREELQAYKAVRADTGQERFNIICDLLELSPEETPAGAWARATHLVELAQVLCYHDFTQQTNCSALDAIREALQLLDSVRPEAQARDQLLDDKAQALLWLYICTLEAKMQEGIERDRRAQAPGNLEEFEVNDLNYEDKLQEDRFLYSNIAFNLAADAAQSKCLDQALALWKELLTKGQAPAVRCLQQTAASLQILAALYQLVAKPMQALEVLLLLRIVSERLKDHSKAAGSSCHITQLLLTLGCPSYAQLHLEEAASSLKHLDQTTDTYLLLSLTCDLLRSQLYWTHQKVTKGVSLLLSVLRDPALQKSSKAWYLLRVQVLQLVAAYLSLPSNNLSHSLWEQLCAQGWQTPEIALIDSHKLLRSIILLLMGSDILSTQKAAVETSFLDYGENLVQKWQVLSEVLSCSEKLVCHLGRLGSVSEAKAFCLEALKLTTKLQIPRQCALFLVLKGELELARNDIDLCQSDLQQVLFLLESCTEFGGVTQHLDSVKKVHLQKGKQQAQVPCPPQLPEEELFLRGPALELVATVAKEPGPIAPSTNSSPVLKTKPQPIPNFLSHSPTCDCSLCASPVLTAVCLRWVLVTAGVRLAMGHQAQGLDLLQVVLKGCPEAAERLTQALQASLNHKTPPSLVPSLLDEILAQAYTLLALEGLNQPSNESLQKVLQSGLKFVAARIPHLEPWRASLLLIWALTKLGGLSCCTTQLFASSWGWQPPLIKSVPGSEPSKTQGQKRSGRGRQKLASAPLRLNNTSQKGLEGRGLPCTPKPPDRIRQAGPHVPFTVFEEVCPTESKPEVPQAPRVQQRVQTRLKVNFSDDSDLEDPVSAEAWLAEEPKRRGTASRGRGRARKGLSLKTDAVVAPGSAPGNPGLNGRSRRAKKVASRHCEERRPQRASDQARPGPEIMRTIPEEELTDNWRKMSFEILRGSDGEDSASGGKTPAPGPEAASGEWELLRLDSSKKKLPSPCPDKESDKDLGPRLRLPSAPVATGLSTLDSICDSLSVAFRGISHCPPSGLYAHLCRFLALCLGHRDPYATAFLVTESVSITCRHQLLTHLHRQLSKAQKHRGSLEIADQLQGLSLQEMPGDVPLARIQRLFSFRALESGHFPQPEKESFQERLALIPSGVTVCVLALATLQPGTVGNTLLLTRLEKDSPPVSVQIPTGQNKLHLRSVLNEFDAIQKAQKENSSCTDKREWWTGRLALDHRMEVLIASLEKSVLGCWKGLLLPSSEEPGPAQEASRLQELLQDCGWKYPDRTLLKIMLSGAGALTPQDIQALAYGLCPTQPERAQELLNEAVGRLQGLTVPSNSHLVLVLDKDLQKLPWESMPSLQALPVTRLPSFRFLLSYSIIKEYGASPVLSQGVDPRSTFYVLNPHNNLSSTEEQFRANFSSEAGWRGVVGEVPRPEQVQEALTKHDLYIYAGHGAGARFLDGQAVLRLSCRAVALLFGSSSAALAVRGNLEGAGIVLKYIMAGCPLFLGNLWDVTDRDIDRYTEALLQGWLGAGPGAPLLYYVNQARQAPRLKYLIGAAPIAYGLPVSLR

Sequence of MBP-SCC1^100–320 with C-terminal tetracysteine motif, unphosphorylated (human) (O60216 100-320): as the sequence (O60216 100-320) above

inactive apo-separase (separase^C2029S), Q14674 1-2120
fold lower Kd than the SCC1 350-550 construct [1]: 3 fold | fold lower Kd than unphosphorylated SCC1 100-320 [2]: 2 fold

B1: MBP-SCC1^350–550 with C-terminal tetracysteine motif, unphosphorylated (domain or fragment, human, UniProt O60216 350-550, looked up)
chain: TLDLAPPTKKLMMWKETGGVEKLFSLPAQPLWNNRLLKLFTRCLTPLVPEDLRKRRKGGEADNLDEFLKEFENPEVPREDQQQQHQQRDVIDEPIIEEPSRLQESVMEASRTNIDESAMPPPPPQGVKRKAGQIDPEPVMPPQQVEQMEIPPVELPPEEPPNICQLIPELELLPEKEKEKEKEKEDDEEEEDEDASGGDQD
modifications: FlAsH-EDT2 fluorescent dye on the C-terminal tetracysteine motif
notes: human SCC1/RAD21, amino acids 350 to 550 (holds cleavage site 2, R427); pETM41 vector; also called SCC1 site 2 (amino acids 350 to 550); source: E. coli BL21, purified (HiTrap MBP, Superdex 200); not shown: 6xHis-MBP, N-terminal, kept
binding result [3]: binds
